Measurements published in patent US20100021386A1.

Experiments:
[1] = target: IGF-II receptor (Long Evans rat liver) (rat); assay: saturation binding of [125I] IGF-II to pooled rat liver homogenate, filter plates; control diet, PPAR-δ agonist treated rats
[2] = target: IGF-II receptor (Long Evans rat liver) (rat); assay: saturation binding of [125I] IGF-II to pooled rat liver homogenate, filter plates; control diet, PPAR-α agonist treated rats
[3] = target: IGF-II receptor (Long Evans rat liver) (rat); assay: saturation binding of [125I] IGF-II to pooled rat liver homogenate, filter plates; control diet, vehicle
[4] = target: IGF-II receptor (Long Evans rat liver) (rat); assay: saturation binding of [125I] IGF-II to pooled rat liver homogenate, filter plates; ethanol diet, PPAR-γ agonist treated rats
[5] = target: IGF-II receptor (Long Evans rat liver) (rat); assay: saturation binding of [125I] IGF-II to pooled rat liver homogenate, filter plates; ethanol diet, vehicle
[6] = target: IGF-II receptor (Long Evans rat liver) (rat); assay: saturation binding of [125I] IGF-II to pooled rat liver homogenate, filter plates; ethanol diet, PPAR-δ agonist treated rats
[7] = target: IGF-II receptor (Long Evans rat liver) (rat); assay: saturation binding of [125I] IGF-II to pooled rat liver homogenate, filter plates; ethanol diet, PPAR-α agonist treated rats
[8] = target: IGF-II receptor (Long Evans rat liver) (rat); assay: saturation binding of [125I] IGF-II to pooled rat liver homogenate, filter plates; control diet, PPAR-γ agonist treated rats

Sequence of Human recombinant [125I] IGF-II (P01344 25-91): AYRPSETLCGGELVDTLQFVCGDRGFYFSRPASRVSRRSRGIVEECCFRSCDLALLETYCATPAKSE

BMAX [1]: 29 | BMAX [2]: 40.3 | BMAX [3]: 40.1 | BMAX [4]: 22.6 | BMAX [5]: 22.6 | BMAX [6]: 51.5 | BMAX [7]: 28.9 | BMAX [8]: 25.2
Substance: Human recombinant [125I] IGF-II (from UniProt P01344 25-91) (ligand)
